Results: patent US20210292393A1 (published 2021)
Substitutions are numbered along the chain they refer to.

B1: antibody 443 (antibody, V domains shown)
VH: QMRLEESGPGLVKPSETLSLTCTVAGGSITSSDYFWGWLRQSPGKGLEWIASTYHGGSIQYHPALKSRVTISVDASKNQISLRLSSVTAADTAVYYCARDRGDDGPMGTYYFDHWGQGALVTVSS
VL: QSVLTQPPSVSGAPGQSVTISCAGSSSNIGAGHDVHWYQQIPGTAPKLLICGNTNRPSGVPERFSGSRSGTSASLAITGLQAEDEAVYYCQSYDPSHVFFGTGTKLTVL
B2: antibody 563 (antibody, V domains shown)
VH: QVQLVESGGGVVQPGRSLRLSCAASGFTFSSYAMHWVRQAPGKGLEWVAVISDDGSNKYYADSVKGRFTISRDNSKNTLYLQMNSLRAEDTAVYYCARDIVATIRRLFDYWGQGTLVTVSS
VL: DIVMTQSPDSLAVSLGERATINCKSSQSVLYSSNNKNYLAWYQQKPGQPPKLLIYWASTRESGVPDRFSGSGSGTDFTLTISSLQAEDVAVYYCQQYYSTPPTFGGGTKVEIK
B3: antibody 544 (antibody, V domains shown)
VH: QVQLQQWGAGLLKPSETLSLTCAVYGGSFSGYYWSWIRQPPGKGLEWIGEINHSGSTNYNPSLKSRVTISVDTSKNQFSLKLSSVTAADTAVYYCARGFKWFGELLFGAQGTLVTVSS
VL: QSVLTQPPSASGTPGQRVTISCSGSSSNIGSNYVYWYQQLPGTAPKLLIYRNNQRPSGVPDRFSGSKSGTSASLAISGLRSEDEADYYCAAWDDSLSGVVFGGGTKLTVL
B4: antibody 444 (antibody, V domains shown)
VH: QVQLVESGGGLVKPGGSLRLSCAASGFTFSDYYMSWIRQAPGKGLEWVSYISSSGSTIYYADSVKGRFTISRDNAKNSLYLQMNSLRAEDTAVYYCARERKVVVAATRNYYYYYGMDVWGQGTTVTVSS
VL: SYELTQPPSVSVSPGQTARITCSGDALPKQYAYWYQQKPGQAPVLVIYKDSERPSGIPERFSGSSSGTTVTLTISGVQAEDEADYYCQSADSSTWVFGGGTKLTVL
B5: antibody 454 (antibody, V domains shown)
VH: QVQLVQSGAEVKKPGASLKVSCKASGYIFTGYYMHWVRQAPGQGLEWMGWISPNSGGTKYAQKFQGRVTMTRDTSISTAYMELSRLRSDDSAVYYCAREPYYDILTGYYTPRRYLDYWGQGTLVTVSS
VL: QSALTQPASVSGSPGQSITISCTGTSSDVGDYNYVSWYQQHPGKVPKLMIYDVSHRPSGVTNRFSGSKSGNTASLTISGLRAEDEADYYCSSYTSSSTYVFGTGTKVTVL
B6: antibody 556 (antibody, V domains shown)
VH: QVQLVESGGGVVQPGRSLRLSCAASGFTFSSYAMHWVRQAPGKGLEWVAVISYDGSDKYYADSVKGRVTISRDNSKNTLYLQMNSLRVEDTAVFYCAKDDCSGGVCFPDYWGQGTLVTVSS
VL: B5 VL with D31G, V45A, D52E, H55I, T61S, R81Q, D87A, Y99L, T103G, V107L
B7: antibody 474 (antibody, V domains shown)
VH: EVQLVESGGGLVQPGGSLRLSCAASGFTFSSYWMHWVRQAPGKGLVWVSRINSDGSSTSYADSVKGRFTISRDNAKNTLYRQMNSLRAEDTAVYYCALGPLDIVGSYYYYGMDVWGQGTTVTVSS
VL: NFMLTQPHSVSESPGKTVTISCTGSSGSIASNYVQWYQQRPGSAPTTVIYEDNQRPSGVPDRFSGSIDSSSNSASLTISGLKTEDEADYYCQSYDSSNQDVVFGGGTKLTVL
B8: antibody 477 (antibody, V domains shown)
VH: QVQLVESGGGVVQPGRSLRLSCAASGITFSSYAMHWVRQAPGKGLEWVAVISYDGSDKYHADSVKGRFAISRDNSKNTLYLQMNSLRAEDTAVYYCAKDKGIAVAGTGWIRPDPEYYFDYWGQGTLVTVSS
VL: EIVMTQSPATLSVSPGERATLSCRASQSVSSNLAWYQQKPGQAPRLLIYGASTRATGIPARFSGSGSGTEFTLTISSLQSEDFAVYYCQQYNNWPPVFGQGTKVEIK
B9: antibody 564 (antibody, V domains shown)
VH: QVHLVESGGGVVQPGKSLRLSCAASGFIFSSFGMHWVRQPPGKGLEWLAVVSYDGSVTKYSDSFEGRFTISRDNSKNTLYLQMDSLRPEDTAVYYCAKGQGTNLLHYWGQGILVTVSS
VL: DVVLSQSPLSLPVTLGQPASISCRSSESLVYTDGDTYLHWFHQRPGQSPRRLIFKVSHRESGVPDRISGSGSGTDFTLKISRVEAEDVGVYYCMQGTHWPFTFGPGTKVDIK
B10: antibody 452 (antibody, V domains shown)
VH: QVQLVESGGGLVKPGGSLRLSCAASGFTFSDYYLSWIRQAPGKGLEWVSYISSSGSNIYYADSVKGRFTISRDNAKNSLYLQMNSLRADDTAVFYCARAGRYCSGGSCRVEYFQHWGQGTLVTVSS
VL: SYELTQPPSVSVSPGQTARITCSGDALPKQYAYWYQQKPGQAPVLVIYKDNERPSGIPERFSGSSSGTTATLTISGVQAEDEADYYCQSADSSGTVVFGGGTKLTVL
B11: antibody 546 (antibody, V domains shown)
VH: QVQLVESGGGVVQPGRSLRLSCAASGFTFSSYGMHWVRQAPGKGLEWVAVIWYDGSNKYYADSVKGRFTISRDNSKNTLYLQMNSLRAEDTAVYYCARNCGGDCVAGDGFDYWGQGTLVTVSS
VL: DIQMTQSPSSLSASVGDRVTITCRASQSISSYLNWYQQKPGKAPNLLIYAASSLQSGVPSRFSGSGSGTDFTLTISSLQPEDFATYYCQQSYSALTWTFGQGTKVEIK
B12: antibody 446 (antibody, V domains shown)
VH: QVQLVESGGGVVQPGRSLRLSCAASGFTFSSYAMHWVRQAPGKGLEWVAVISYDGSNKYYADSVKGRFTISRDNSKNTLYLQMNSLRAEDTAVYYCARPNSGSYFGYFQHWGQGTLVTVSS
VL: QSVLTQPPSVSGAPGQRVTISCTGSSSNIGAGYDVHWYQQLPGTAPKLLIYGNSNRPSGVPDRFSGSKSGTSASLAITGLQAEDEADYYCQSYDSSLSGFYVFGTGTKVTVL
B13: antibody 576 (antibody, V domains shown)
VH: B12 VH with R98K, P99A, N100G, S101G, F105Y, G106R, Y107G, Q109D, H110Y
VL: DIQLTQSPSFLSASVGDRVTITCRASQGISSYLAWYQQKPGKAPKLLIYAASTLQSGVPSRFSGSGSGTEFTLTISSLQPEDFATYYCQQLNSYPTFGPGTKVDIK
B14: antibody 548 (antibody, V domains shown)
VH: B12 VH with S85N, R98K, P99S, N100G, F105L, G106S, Y107A, Q109D, H110I, L116M
VL: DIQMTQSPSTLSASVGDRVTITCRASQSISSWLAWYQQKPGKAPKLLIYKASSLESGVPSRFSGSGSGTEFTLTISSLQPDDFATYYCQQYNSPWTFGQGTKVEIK
B15: antibody 569 (antibody, V domains shown)
VH: B12 VH with P99A, N100S, S103G, F105Q, Y107P, Q109D, H110P
VL: EIVLTQSPATLSLSPGERATLSCRASQSVSSYLAWYQQKPGQAPRLLIYDASNRATGIPARFSGSGSGTDFTLTISSLEPEDFAVYYCQQRSSPFGPGTKVDIK
B16: antibody 475 (antibody, V domains shown)
VH: QVQLVESGGGVVQPGRSLRLSCAASGFTFSSYAMHWVRQAPGKGLEWVTFISHEGSNKYYADSVKGRFTISRDNSKNTLYLQMNSLRAEDTAVYYCARTFEYSSSSATGDFDYWGQGTLVTVSS
VL: QSVLTQPPSVSGAPGQRVTISCTGSSSNIGAGYDVHWYQQLPGTAPKLLIYGNSNRPSGVPDRFSGSKSGTSASLAITGLQAEDEADYYCQSYDSSLSGVVFGGGTKLTVL
B17: antibody 566 (antibody, V domains shown)
VH: QVQLVQSGAEVKKPGASVKVSCKASGYTFTSYAMHWVRQAPGQRLEWMGWINAGNGNTKYSQKFQGRVTITRDTSASTAYMELSSLRSEDTAVYYCARDLGVAVTLHPADFDYWGQGTLVTVSS
VL: B16 VL with G52D, G99A
B18: antibody 476 (antibody, V domains shown)
VH: QVQLVQSGSELKKPGASVKVSCKASGYTFTSYAMNWVRQAPGQGLEWMGWINTNTGNPTYAQGFTGRFVFSLDTSVSTAYLQISSLKAEDTGVYYCARDHELPNSSSWFGHFEYWGQGTLVTVSS
VL: SYELTQPPSVSVSPGQTARITCSGDALPKQYAYWYQQKAGQAPVLVIYKDSERRSGIPERFSGSSSGTTVTLTISGVQAEDEADYYCQSADSSGTSVVFGGGTKLTVL
B19: antibody 545 (antibody, V domains shown)
VH: B18 VH with S85V
VL: B18 VL
B20: antibody 560 (antibody, V domains shown)
VH: EVQLVESGGGLVQPGGSLRLSCAASGFTISSNYMSWVRQAPGKGLEWVSVIYSGGSTYYADSVKGRFTISRDNSKNTLYLQMNSLRAEDTAVYYCAREEGEWEKDYYGMDVWGQGTTVTVSS
VL: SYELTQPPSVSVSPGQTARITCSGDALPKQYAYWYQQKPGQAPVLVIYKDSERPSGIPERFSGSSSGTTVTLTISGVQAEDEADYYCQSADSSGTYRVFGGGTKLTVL
B21: antibody 571 (antibody, V domains shown)
VH: EVQLVESGGGLVQPGGSLRLSCAASGFTFSTYWMTWVRQAPGKGLEWVANIKHDGSGKYHVDSVKGRFTISRDNAKNSLYLQMNSLRAEDTAVYYCTRDEGGWYDYWGQGTLVTVSS
VL: QSALTQPASVSGSPGQSITISCTGTSSDVGSYNPVSWYQQHPGKAPKVMIYEGSKRPSGVSNRFSGSKSGNTASLTISGLQAEDEADYYCCSYARSSTFVVFGGGTKLTVL
B22: antibody 470 (antibody, V domains shown)
VH: not shown
VL: QSALTQPASVSGSPGQSITISCTGTSSDVGSYNLVSWYQQHPGKAPKLMIYEVSKRPSGVSNRFSGSKSGNTASLTISGLQAEDEADYYCCSYAGSSTLVFGGGTKLTVL
B23: antibody 485 (antibody, V domains shown)
VH: QVQLQESGPGLVKPSGTLSLTCAVSGASISSSNWWSWVRQPPGKGLEWIGEIYHSGSTNYNPSLKSRVTISVDKSKNQFSLKLSSVTAADTAVYYCARRSYYGSGSYYPFDYWGQGTLVTVSS
VL: B22 VL with V53G, S54R, L99Y, G103T, L107V

Legend:
[1] = biological target: SARS-CoV spike protein (full length, trimeric) (SARS-CoV, UniProt P59594 14-1190)
[2] = biological target: SARS-CoV spike protein (full-length trimeric, conjugated to optically encoded beads) (SARS-CoV, UniProt P59594 14-1190)

Row | Binder | fold over isotype control (median fluorescence) [1] [fold over isotype] | fold over isotype control (median fluorescence intensity) [2] [fold over isotype]
1 | B1 | 1.03 | –
2 | B2 | – | 35.4
3 | B3 | – | 1.05
4 | B4 | 1 | –
5 | B5 | 1.1 | –
6 | B6 | – | 1.09
7 | B7 | 1.1 | –
8 | B8 | 1.3 | –
9 | B9 | – | 37.3
10 | B10 | 1.09 | –
11 | B11 | – | 1.18
12 | B12 | 6.58 | –
13 | B13 | – | 6.87
14 | B14 | – | 18.1
15 | B15 | – | 3.31
16 | B16 | 1.18 | –
17 | B17 | – | 0.97
18 | B18 | 1.04 | –
19 | B19 | – | 1.13
20 | B20 | – | 1.14
21 | B21 | – | 1.28
22 | B22 | 1.09 | –
23 | B23 | 1.12 | –
